Measurements taken from patent US20200330588A1 (ICAHN SCHOOL OF MEDICINE AT MOUNT SINAI, published 2020).

Assays:
[1] = molecular target: T1, cyclic gH peptides (7, 10 and 13 aa libraries) spanning gH residues 485-493 (Human cytomegalovirus, cyclized with a thioether linkage between the N' and C' termini); experiment: cyclic peptide microarray (PEPperCHIP), anti-mouse DyLight680 detection
T1 construct: also called region spanning residues 485-493

[2] = molecular target: HCMV glycoprotein gH, strain VHL/E (virions) (Human cytomegalovirus strain VHL/E); experiment: cell-based or functional assay
[3] = molecular target: HCMV glycoprotein gH, strain DAVIS (virions) (Human cytomegalovirus strain DAVIS); experiment: cell-based or functional assay
[4] = molecular target: HCMV glycoprotein gH, strain TR (virions) (Human cytomegalovirus strain TR); experiment: cell-based or functional assay
[5] = molecular target: T2, HCMV glycoprotein gH, strain TB40/E (U373^gH cells, TB40/E-infected cells, virions) (Human cytomegalovirus strain TB40/E); experiment: cell-based or functional assay
[6] = molecular target: HCMV glycoprotein gH, strain AD169 (AD169IE2-YFP-infected MRC5 cells and virions) (Human cytomegalovirus strain AD169, UniProt P12824 24-743); experiment: cell-based or functional assay
[7] = molecular target: T3, gH alanine mutant 488-489 transfected into HEK293 cells with gL (Human cytomegalovirus (consensus …)); experiment: flow cytometry, HEK293 cells transfected with gH alanine mutant and gL; % of gH-positive cells compared to WT
T3 construct: whole, on cells

[8] = molecular target: T4, gH mutant 485-492 (consecutive alanine substitutions) transfected into HEK293 cells with gL (Human cytomegalovirus (consensus …)); experiment: as above
T4 construct: whole, on cells; also called 485-492 mutant; gH mutant 485-92

[9] = molecular target: T5, gH alanine mutant 486-487 transfected into HEK293 cells with gL (Human cytomegalovirus (consensus …)); experiment: as above
T5 construct: whole, on cells

[10] = molecular target: T6, gH alanine mutant 480-481 transfected into HEK293 cells with gL (Human cytomegalovirus (consensus …)); experiment: as above
T6 construct: whole, on cells

[11] = molecular target: T7, gH mutant 480-486 (consecutive alanine substitutions) transfected into HEK293 cells with gL (Human cytomegalovirus (consensus …)); experiment: as above
T7 construct: whole, on cells; also called 480-486 mutant; gH mutant 480-86

[12] = molecular target: T8, gH alanine mutant 482-483 transfected into HEK293 cells with gL (Human cytomegalovirus (consensus …)); experiment: as above
T8 construct: whole, on cells

[13] = molecular target: T9, gH alanine mutant 484-485 transfected into HEK293 cells with gL (Human cytomegalovirus (consensus …)); experiment: as above
T9 construct: whole, on cells

[14] = molecular target: T10, gH alanine mutant 490-491 transfected into HEK293 cells with gL (Human cytomegalovirus (consensus …)); experiment: as above
T10 construct: whole, on cells

[15] = molecular target: gH alanine mutant 478-488 (label as in Table 6); experiment: as above
[16] = molecular target: T2, HCMV glycoprotein gH, strain TB40/E …; experiment: cell-based or functional assay; remark: listed apart in the source

Row | Binder | IC50, strain VHL/E, epithelial cells, α-IE staining [2] | IC50, strain VHL/E, fibroblasts, plaque assay [2] | IC50, strain VHL/E, fibroblasts, α-IE staining [2] | IC50, strain Davis, fibroblasts, plaque assay [3] | IC50, strain TR, epithelial cells, α-IE staining [4] | IC50, strain TR, fibroblasts, plaque assay [4] | IC50, strain TR, fibroblasts, α-IE staining [4] | IC50, neutralization of TB40/E FLAG-YFP infection of fibroblasts (FLAG-YFP read-out) [5] | IC50, strain TB40/E, epithelial cells, α-IE staining [5] | IC50, strain TB40/E, fibroblasts, plaque assay [5] | IC50, strain TB40/E, fibroblasts, α-IE staining [5] | IC50, neutralization of AD169IE2-YFP infection of fibroblasts (IE2-YFP read-out) [6] | Avg. binding (% of mass) [7] | Avg. binding (% of mass) [8] | Avg. binding (% of mass) [9] | Avg. binding (% of mass) [10] | Avg. binding (% of mass) [11] | Avg. binding (% of mass) [12] | Avg. binding (% of mass) [13] | Avg. binding (% of mass) [14] | also measured
1 | monoclonal antibody 5C3 (antibody, V domains shown, also called mAb 5C3; 5C3^647 (Alexa Fluor 647 conjugate)) VH: QVQLQQPGAELVRPGASVKLSCKASGYTFTTYWMNWVKQRPGQGLEWIGMIDPSDSETHYNQMFKDKATLTVDTSSSTAYMQLSSLTSEDSAVYYCARGRSWFVYWGQGTLVTVSS VL: DIVLTQSPASLAVSLGQRATISCRASKSVSSSGYSYVHWYQQKPGQPPKLLIYLASNLESGVPARFSGSGSGTDFTLNIHSVEEEDAATYYCQHNRELPYTFGGGTKLEIKR | 0.11 µg/mL | 0.02 µg/mL | 0.02 µg/mL | 0.22 µg/mL | 0.16 µg/mL | 2.13 µg/mL | 0.63 µg/mL | 0.07 µg/mL | 0.96 µg/mL | 0.45 µg/mL | 0.88 µg/mL | 0.24 µg/mL | 113% | 49% | 56% | 72% | 14% | 85% | 76% | 92% | fold over background [1]: ~3 fold; Avg. binding (% of mass) [15]: 100%; IC50, neutralization of TB40/E FLAG-YFP infection of ARPE-19 epithelial cells (YFP read-out) [16]: 0.04 µg/mL
2 | monoclonal antibody 10C10 (antibody, V domains shown, also called mAb 10C10; 10C10^647 (Alexa Fluor 647 conjugate)) VH: EVQLQQSGPELVKPGVSMRISCKASGFSFTDYTMNWVKQSHRKNLEWIGLVNPYNGGTSHNPNFKGKATLTVDKSSSTAYMELLSLTSEDSAVYYCARRGRRDYALDYWGQGTSVTVSS VL: DIVLTQSPVTLSVTPGDSVSLSCRASQSVSNNLHWYQQKSHESPRLLIKYASQSISGIPSRFRGSGSGTDFTLSIISVETEDFGMYFCQQSNIWPHTFGAGTKLELKR | 0.11 µg/mL | 0.24 µg/mL | 0.24 µg/mL | 0.37 µg/mL | 0.44 µg/mL | 2.43 µg/mL | 2.34 µg/mL | 0.38 µg/mL | 1.35 µg/mL | 1.28 µg/mL | 4.18 µg/mL | 0.5 µg/mL | 98% | 2% | 2% | 70% | 3% | 91% | 3% | 72% | Avg. binding (% of mass) [15]: 100%; IC50, neutralization of TB40/E FLAG-YFP infection of ARPE-19 epithelial cells (YFP read-out) [16]: 0.13 µg/mL
